Measured values reported in article PMC8097376 (EMBO Reports, 2021).

Experiments:
[1] = target: T1, RBD mutant derived from SARS-CoV-2 strain B.1.351 (South Africa) (SARS-CoV-2, B.1.351 (RBD K417N, E484K, …, K417N | E484K | N501Y)); experiment: BLI; settings: both partners purified
T1 construct: also called RBD_(B.1.351); source: Expi293 cells, purified

[2] = target: T2, RBD mutant derived from SARS-CoV-2 strain B.1.1.7 (UK) (SARS-CoV-2, B.1.1.7 (RBD N501Y), N501Y); experiment: BLI; settings: both partners purified
T2 construct: also called RBD_(B.1.1.7); source: Expi293 cells, purified

B1: nanobody NM1226 (VHH)
VHH: QVQLVESGGGSVQPGGSLRLSCLGSGSLDYYAIGWFRQAPGKEREGVSCIASSGDRTIYADSVKGRFTISRDYGKNTVYLQMNSLKPEDTAMYYCAALQGSYYYTGFVANEYDYWGQGAPVTVSS
Kd [1]: ~5.5 nM | Kd [2]: ~5.4 nM
